The results in this text go back to publication PMC5748983.

The target of the assay is GST-DENN-4 (C. elegans). Kind of assay: pull-down.

B1: HA-RAB-10(T23N) (natural protein)
chain: MARRPYDMLFKLLLIGDSGVGKNCILYRFSDDAFNTTFISTIGIDFKIKTIELKGKKIKLQIWDTAGQERFHTITTSYYRGAMGIMLVYDITNAKSFDNIAKWLRNIDEHASEDVVKMILGNKCDMSDRRVVSRERGEKIAQDHGISFHETSAKLNVHVDTAFYDLAEAILAKMPDSTDEQSRDTVNPVQPQRQSSSGGCC
Molecule B1 returned a fold increase of pull-down with HA-LET-413 added, against without of 3 fold.
